Experimental data as given in US20180155451A1 (published 2018).

T1: FcγRIIb (human, UniProt P31994 43-217)
T1 construct: extracellular domain; also called FcgRIIb; 2b; not shown: His tag at the C terminus
T1 sequence (looked up): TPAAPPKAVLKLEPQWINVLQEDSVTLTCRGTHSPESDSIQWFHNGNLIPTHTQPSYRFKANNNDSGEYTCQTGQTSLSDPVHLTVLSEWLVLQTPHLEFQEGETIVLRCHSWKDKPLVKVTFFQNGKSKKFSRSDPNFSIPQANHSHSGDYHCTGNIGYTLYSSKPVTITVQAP

T2: FcγRIIb extracellular domain with C-terminal His tag (human, UniProt P31994 43-217)
T2 construct: extracellular domain; Soluble receptor expressed in FreeStyle293 cells, used as analyte in Biacore; also called FcgRIIb; 2b; not shown: His tag at the C terminus
T2 sequence (looked up): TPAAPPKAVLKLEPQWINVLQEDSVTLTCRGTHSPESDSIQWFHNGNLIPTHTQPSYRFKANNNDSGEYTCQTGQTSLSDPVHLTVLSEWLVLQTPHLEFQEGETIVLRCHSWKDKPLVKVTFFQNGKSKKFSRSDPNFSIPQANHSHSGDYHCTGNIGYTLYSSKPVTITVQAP


Legend:
[1] = biological target: T1, FcγRIIb; test: SPR (Biacore), antibody captured, FcγR as analyte; binding as % of GpH7-A5/GpH7-B3/GpL16-k0
[2] = biological target: T3, FcγRIa (human, UniProt P12314 16-292); test: as above
T3 construct: extracellular domain; also called FcgRI; 1a; not shown: His tag at the C terminus

[3] = biological target: T3, FcγRIa; test: SPR (Biacore); He/Con_1a (FcγRIa) divided by He/Con_2b (FcγRIIb)
[4] = biological target: T4, FcγRIIIa extracellular domain with C-terminal His tag (human, UniProt P08637 17-208); test: SPR (Biacore), antibody captured on antigen peptide chip, FcγR as analyte
T4 construct: extracellular domain; also called FcgRIIIa; 3a; not shown: His tag at the C terminus
Procedure: (§1) Analysis of interaction between objective antibody and the FcγR was carried out using Biacore T100 (GE Healthcare). HBS-EP+ (GE Healthcare) was used as the running buffer, and the measurement temperature was set to 25° C. Chips produced by immobilizing the antigen peptide by the amine coupling method to a Series S Sencor Chip CM5 (GE Healthcare), or alternatively, chips produced by allowing preliminarily biotinylated antigen peptides to interact with and immobilize onto a Series S Sensor Chip SA (certified) (GE Healthcare) were used. Antibodies of interest were captured onto an antigen peptide-immobilized chip, and allowed to interact to each FcγR diluted with running buffer. To regenerate and repeatedly use the chip, the antibodies captured on the chip were washed off by reacting 10 mM glycine-HCl, pH 1.5.
(§2) The FcγR-binding activity of each antibody was assessed primarily using as an indicator the FcγR-binding activity and dissociation constant for FcγR.

[5] = biological target: T2, FcγRIIb extracellular domain with …; test: as above
Procedure: as §1, §2

[6] = biological target: T4, FcγRIIIa extracellular domain with …; test: SPR; He/Con_3a divided by He/Con_2b (FcγRIIIa over FcγRIIb)
Procedure: as §1, §2

T3 sequence (P12314 16-292): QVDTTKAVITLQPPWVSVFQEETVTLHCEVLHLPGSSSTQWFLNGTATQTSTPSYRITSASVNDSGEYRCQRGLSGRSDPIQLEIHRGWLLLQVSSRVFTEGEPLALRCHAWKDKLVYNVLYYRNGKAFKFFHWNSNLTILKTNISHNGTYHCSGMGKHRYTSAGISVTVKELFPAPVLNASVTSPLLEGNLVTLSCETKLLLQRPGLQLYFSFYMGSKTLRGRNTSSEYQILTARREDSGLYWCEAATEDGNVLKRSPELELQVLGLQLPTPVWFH
T4 sequence (P08637 17-208): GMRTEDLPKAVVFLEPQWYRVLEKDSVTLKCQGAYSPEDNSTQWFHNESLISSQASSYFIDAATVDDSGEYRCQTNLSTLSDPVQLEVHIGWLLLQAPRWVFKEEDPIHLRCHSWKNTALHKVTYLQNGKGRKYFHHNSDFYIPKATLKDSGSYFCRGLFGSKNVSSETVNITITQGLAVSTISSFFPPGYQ

Binder	He/Con_2b [1]	He/Con_1a [2]	Ia/IIb He_1a/2b [3]	He/Con_3a [4]	He/Con_2b [5]	He_3a/2b (IIIa/IIb) [6]
GpH7-A5/GpH7-B3 variant A327_09D/GpL16-k0 (antibody, human IgG1, kappa, heterodimerized IgG1; alteration in the GpH7-B3 H chain only; also called He Ab) heavy 1: not shown heavy 2: not shown light: DIVMTQSPLSLPVTPGEPASISCQASESLVHSNRNTYLHWYLQKPGQSPQLLIYKVSNRFSGVPDRFSGSGSGTDFTLKISRVEAEDVGVYYCSQNTHVPPTFGQGTKVEIERTVAAPSVFIFPPSDEQLKSGTASVVCLLNNFYPREAKVQWKVDNALQSGNSQESVTEQDSKDSTYSLSSTLTLSKADYEKHKVYACEVTHQGLSSPVTKSFNRGEC	172 % of control	103 % of control	0.6 ratio			
GpH7-A5/GpH7-B3 variant I332_10E/GpL16-k0 (antibody, human IgG1, kappa, heterodimerized IgG1; alteration in the GpH7-B3 H chain only; also called He Ab) heavy 1: not shown heavy 2: not shown light: DIVMTQSPLSLPVTPGEPASISCQASESLVHSNRNTYLHWYLQKPGQSPQLLIYKVSNRFSGVPDRFSGSGSGTDFTLKISRVEAEDVGVYYCSQNTHVPPTFGQGTKVEIERTVAAPSVFIFPPSDEQLKSGTASVVCLLNNFYPREAKVQWKVDNALQSGNSQESVTEQDSKDSTYSLSSTLTLSKADYEKHKVYACEVTHQGLSSPVTKSFNRGEC	142 % of control	96.3 % of control	0.68 ratio			
GpH7-A5/GpH7-B3 variant L328_09D/GpL16-k0 (antibody, human IgG1, kappa, heterodimerized IgG1; alteration in the GpH7-B3 H chain only; also called He Ab) heavy 1: not shown heavy 2: not shown light: DIVMTQSPLSLPVTPGEPASISCQASESLVHSNRNTYLHWYLQKPGQSPQLLIYKVSNRFSGVPDRFSGSGSGTDFTLKISRVEAEDVGVYYCSQNTHVPPTFGQGTKVEIERTVAAPSVFIFPPSDEQLKSGTASVVCLLNNFYPREAKVQWKVDNALQSGNSQESVTEQDSKDSTYSLSSTLTLSKADYEKHKVYACEVTHQGLSSPVTKSFNRGEC	199 % of control	102 % of control	0.51 ratio			
GpH7-A5/GpH7-B3 variant A330_05P/GpL16-k0 (antibody, human IgG1, kappa, heterodimerized IgG1; alteration in the GpH7-B3 H chain only; also called He Ab) heavy 1: not shown heavy 2: not shown light: DIVMTQSPLSLPVTPGEPASISCQASESLVHSNRNTYLHWYLQKPGQSPQLLIYKVSNRFSGVPDRFSGSGSGTDFTLKISRVEAEDVGVYYCSQNTHVPPTFGQGTKVEIERTVAAPSVFIFPPSDEQLKSGTASVVCLLNNFYPREAKVQWKVDNALQSGNSQESVTEQDSKDSTYSLSSTLTLSKADYEKHKVYACEVTHQGLSSPVTKSFNRGEC	137 % of control	101 % of control	0.74 ratio			

Results, then the binder that gave them:

He/Con_2b [1]	He/Con_1a [2]	Ia/IIb He_1a/2b [3]	He/Con_3a [4]	He/Con_2b [5]	He_3a/2b (IIIa/IIb) [6]	Binder
172 % of control	101 % of control	0.59 ratio				GpH7-A5/GpH7-B3 variant L328_10E/GpL16-k0 (antibody, human IgG1, kappa, heterodimerized IgG1; alteration in the GpH7-B3 H chain only; also called He Ab) heavy 1: not shown heavy 2: not shown light: DIVMTQSPLSLPVTPGEPASISCQASESLVHSNRNTYLHWYLQKPGQSPQLLIYKVSNRFSGVPDRFSGSGSGTDFTLKISRVEAEDVGVYYCSQNTHVPPTFGQGTKVEIERTVAAPSVFIFPPSDEQLKSGTASVVCLLNNFYPREAKVQWKVDNALQSGNSQESVTEQDSKDSTYSLSSTLTLSKADYEKHKVYACEVTHQGLSSPVTKSFNRGEC
			72.1 relative binding (GpH7-A5/GpH7-B3/GpL16-k0 = 100)	95.7 relative binding (GpH7-A5/GpH7-B3/GpL16-k0 = 100)	0.75 ratio	GpH7-A5/GpH7-B3 variant P331_08L/GpL16-k0 (antibody, human IgG1, kappa, Heterodimerized anti-glypican-3 IgG1; P331L (EU) only in the GpH7-B3 chain; also called He Ab) heavy 1: not shown heavy 2: not shown light: DIVMTQSPLSLPVTPGEPASISCQASESLVHSNRNTYLHWYLQKPGQSPQLLIYKVSNRFSGVPDRFSGSGSGTDFTLKISRVEAEDVGVYYCSQNTHVPPTFGQGTKVEIERTVAAPSVFIFPPSDEQLKSGTASVVCLLNNFYPREAKVQWKVDNALQSGNSQESVTEQDSKDSTYSLSSTLTLSKADYEKHKVYACEVTHQGLSSPVTKSFNRGEC
			67.5 relative binding (GpH7-A5/GpH7-B3/GpL16-k0 = 100)	84.7 relative binding (GpH7-A5/GpH7-B3/GpL16-k0 = 100)	0.8 ratio	GpH7-A5/GpH7-B3 variant P331_11K/GpL16-k0 (antibody, human IgG1, kappa, Heterodimerized anti-glypican-3 IgG1; P331K (EU) only in the GpH7-B3 chain; also called He Ab) heavy 1: not shown heavy 2: not shown light: DIVMTQSPLSLPVTPGEPASISCQASESLVHSNRNTYLHWYLQKPGQSPQLLIYKVSNRFSGVPDRFSGSGSGTDFTLKISRVEAEDVGVYYCSQNTHVPPTFGQGTKVEIERTVAAPSVFIFPPSDEQLKSGTASVVCLLNNFYPREAKVQWKVDNALQSGNSQESVTEQDSKDSTYSLSSTLTLSKADYEKHKVYACEVTHQGLSSPVTKSFNRGEC
217 % of control	97.6 % of control	0.45 ratio				GpH7-A5/GpH7-B3 variant N325_06M/GpL16-k0 (antibody, human IgG1, kappa, heterodimerized IgG1; alteration in the GpH7-B3 H chain only; also called He Ab) heavy 1: not shown heavy 2: not shown light: DIVMTQSPLSLPVTPGEPASISCQASESLVHSNRNTYLHWYLQKPGQSPQLLIYKVSNRFSGVPDRFSGSGSGTDFTLKISRVEAEDVGVYYCSQNTHVPPTFGQGTKVEIERTVAAPSVFIFPPSDEQLKSGTASVVCLLNNFYPREAKVQWKVDNALQSGNSQESVTEQDSKDSTYSLSSTLTLSKADYEKHKVYACEVTHQGLSSPVTKSFNRGEC
